Source: patent US6040160A, “Method of producing L-lysine by fermentation” (Ajinomoto Co., Inc., priority 1993, dated 2000)

Columns and labels:
Type in all cases: biochemical, E. coli
[1] = tested on: AKIII; test: AKIII enzyme activity and inhibition by L-lysine, cell-free extract of GT3 transformants
From the text: No. 24, No. 43, No. 48, No. 60, No. 80, No. 117, No. 126, No. 149, No. 150, No. 156, No. 158, No. 167, No. 169 and No. 172 were selected as representative strains of the aforementioned 14 groups. Mutant plasmids derived from pLYSC1 were recovered from each of them, and designated as pLYSC1*24, pLYSC1*43, pLYSC1*48, pLYSC1*60, pLYSC1*80, pLYSC1*117, pLYSC1*126, pLYSC1*149, pLYSC1*150, pLYSC1*156, pLYSC1*158, pLYSC1*167, pLYSC1*169 and pLYSC1*172, respectively. An AK completely deficient strain GT3 was transformed with them and the wild type pLYSC1. A cell-free extract was prepared from each of transformed strains, and the enzyme activity of AKIII was measured.
The cell-free extract (crude enzyme solution) was prepared as follows. A transformed strain was cultivated in a 2×TY medium, and collected at an OD660 of about 0.8. Cells were washed with 0.02 M KH2 PO4 (pH 6.75)-0.03 M β-mercaptoethanol under a condition of 0° C., and the cells were ruptured by sonication (0° C., 100 W, 30 minutes×4). A ruptured cell solution was centrifuged at 33 krpm for 1 hour under a condition of 0° C. to obtain a supernatant,to which ammonium sulfate was added to give 80% saturation. After centrifugation, a pellet was dissolved in 0.02 M KH2 PO4 (pH 6.75)-0.03 M β-mercaptoethanol, and stored at 0° C. overnight.
The enzyme activity of AKIII was measured in accordance with a method of Stadtman et al. (Stadtman, E. R., Cohen, G. N., LeBras, G., and Robichon-Szulmajster, H., J. Biol. Chem., 236, 2033 (1961)). Namely, a reaction solution having the following composition was incubated at 27° C. for 45 minutes, and an FeCl3 solution (2.8 N HCl 0.4 ml +12% TCA 0.4 ml +5% FeCl3. 6H2 O/0.1 N HCl 0.7 ml) was added to develop a color, which was centrifuged followed by measurement of absorbance of a supernatant at 540 nm. The activity was indicated by an amount of hydroxamic acid generated per minute (1 U=1 μmol/min). The molar absorption coefficient was 600. Potassium aspartate was removed from the reaction solution to be used as a blank.
Various concentrations of L-lysine were added to the enzyme reaction solution for measurement of the enzyme activity of AK, and the degree of inhibition by L-lysine was examined.
On the contrary, the mutant AKIII's obtained this time had various degrees of desensitization, however, inhibition by L-lysine was desensitized in all of 14 species. […] The specific activity per total protein, which might be affected by growth situations of cell and preparation of samples, was equal to or more than that of the wild type in almost all cases, in which there was little problem of decrease in activity due to the introduction of mutation (Table 3). […]

[2] = tested on: DDPS; test: DDPS enzyme activity and inhibition by L-lysine, cell-free extract of JE7627 transformants
Protocol: Mutant pdapA2's were recovered from the 36 strains described above. A dapA-deficient strain, JE7627 was transformed with them and the wild type pdapA2, respectively. A cell-free extract was prepared from each of the transformed strains, and the enzyme activity of DDPS was measured.
(§1) The cell-free extract (crude enzyme solution) was prepared as follows. A transformed strain was cultivated in a 2×TY medium (1.6% Bacto trypton, 1% Yeast extract, 0.5% NaCl), and collected at an optical density at 660 nm (OD660) of about 0.8. A cell pellet was washed with 0.85% NaCl under a condition of 0° C., and suspended in 20 mM potassium phosphate buffer (pH 7.5) containing 400 mM KCl. The cells were ruptured by sonication (0° C., 200 W, 10 minutes). A ruptured cell solution was centrifuged at 33 krpm for 1 hour under a condition of 0° C. to obtain a supernatant to which ammonium sulfate was added to give 80% saturation to be stored at 0° C. overnight followed by centrifugation. A pellet was dissolved in 20 mM potassium phosphate buffer (pH 7.5)-400 mM KCl.
(§2) The enzyme activity of DDPS was measured in accordance with a method of Yugari et al. (Yugari, Y. and Gilvarg, C., J. Biol. Chem., 240, 4710 (1962)). Namely, the absorbance of a reaction solution having the following composition was measured at 37° C. with a spectrophotometer at a wavelength of 270 nm in a time-dependent manner. And generated dihydrodipicolinate was measured. Sodium pyruvate was removed from the reaction system to be used as a blank.
Various concentrations of L-lysine were added to the enzyme reaction solution during measurement of the enzyme activity of DDPS, and the degree of inhibition by L-lysine was examined.

[3] = tested on: DDPS (dihydrodipicolinate synthase); test: DDPS activity of crude enzyme solutions from W3110(tyrA) strains and inhibition by L-lysine
Protocol: as §1, with “A pellet was dissolved in 20 mM potassium phosphate buffer (pH 7.5)-400 mM KCl.” left out
as §2, with “Sodium pyruvate was removed from the reaction system to be used as a blank.” left out
Crude enzyme solutions were prepared from W3110(tyrA), W3110(tyrA)/pdapA and W3110(tyrA)/pdapA* in the same manner as in Example 1, the DDPS (dihydrodipicolinate synthase) activity was measured, and the degree of inhibition of the DDPS activity by L-lysine was examined.

[4] = in the presence of 5 mM of L-lysine
[5] = various concentrations of L-lysine, FIG. 2

B1: Wild type: wild type aspartokinase III (AKIII) of E. coli encoded by lysC on pLYSC1 (protein, UniProt P08660 2-449, looked up)
Lysine-sensitive …: SEIVVSKFGGTSVADFDAMNRSADIVLSDANVRLVVLSASAGITNLLVALAEGLEPGERFEKLDAIRNIQFAILERLRYPNVIREEIERLLENITVLAEAAALATSPALTDELVSHGELMSTLLFVEILRERDVQAQWFDVRKVMRTNDRFGRAEPDIAALAELAALQLLPRLNEGLVITQGFIGSENKGRTTTLGRGGSDYTAALLAEALHASRVDIWTDVPGIYTTDPRVVSAAKRIDEIAFAEAAEMATFGAKVLHPATLLPAVRSDIPVFVGSSKDPRAGGTLVCNKTENPPLFRALALRRNQTLLTLHSLNMLHSRGFLAEVFGILARHNISVDLITTSEVSVALTLDTTGSTSTGDTLLTQSLLMELSALCRVEVEEGLALVALIGNDLSKACGVGKEVFGVLEPFNIRMICYGASSHNLCFLVPGEDAEQVVQKLHSNLFE
Inhibition of AKIII by L-lysine ([1]; 5 mM of L-lysine): about 100%
Specific activity ([1]; 1 U=1 μmol/min hydroxamic acid): 0.0247 U/mg protein
Degree of desensitization of inhibition ([1]; AK activity in the presence of 100 mM of L-lysine with respect to AK activity in the absence of L-lysine): 0%
Inhibition of AKIII by L-lysine [1, 4]: about 100%

B2: wild type DDPS: wild type dihydrodipicolinate synthase of E. coli (dapA product) (protein, UniProt P0A6L2 1-292, looked up)
4-hydroxy-tetrahydrodipicolina …: MFTGSIVAIVTPMDEKGNVCRASLKKLIDYHVASGTSAIVSVGTTGESATLNHDEHADVVMMTLDLADGRIPVIAGTGANATAEAISLTQRFNDSGIVGCLTVTPYYNRPSQEGLYQHFKAIAEHTDLPQILYNVPSRTGCDLLPETVGRLAKVKNIIGIKEATGNLTRVNQIKELVSDDFVLLSGDDASALDFMQLGGHGVISVTANVAARDMAQMCKLAAEGHFAEARVINQRLMPLHNKLFVEPNPIPVKWACKELGLVATDTLRLPMTPITDSGRETVRAALKHAGLL
Inhibition of DDPS by L-lysine [2, 4]: ~80%
Inhibition of DDPS by L-lysine [2, 5]: suffered inhibition by L-lysine

B3: pdapAS24 (protein)
chain: MFTGSIVAIVTPMDEKGNVCRASLKKLIDYHVASGTSAIVSVGTTGESATLNHDEHADVVMMTLDLADGRIPVIAGTGANATAEAISLTQRFNDSGIVGCLTVTPYYNRPSQEGLYQYFKAIAEHTDLPQILYNVPSRTGCDLLPETVGRLAKVKNIIGIKEATGNLTRVNQIKELVSDDFVLLSGDDASALDFMQLGGHGVISVTTNVAARDMAQMCKLAAEEHFAEARVINQRLMPLHNKLFVEPNPIPVKWACKELGLVATDTLRLPMTPITDSGRETVRAALKHAGLL
Specific activity relative to the wild type enzyme (DDPS) [3]: about 1/2
Specific activity of DDPS as compared with the wild type [2]: lowered a little
Inhibition of DDPS by L-lysine [2, 5]: desensitized
